Experimental data: patent publication US20060115897A1

Target: C3b (UniProt P01024)
Assay: cell-based or functional assay

Sequence of C3b (P01024 749-1663 limits assumed, chain 1 of 2): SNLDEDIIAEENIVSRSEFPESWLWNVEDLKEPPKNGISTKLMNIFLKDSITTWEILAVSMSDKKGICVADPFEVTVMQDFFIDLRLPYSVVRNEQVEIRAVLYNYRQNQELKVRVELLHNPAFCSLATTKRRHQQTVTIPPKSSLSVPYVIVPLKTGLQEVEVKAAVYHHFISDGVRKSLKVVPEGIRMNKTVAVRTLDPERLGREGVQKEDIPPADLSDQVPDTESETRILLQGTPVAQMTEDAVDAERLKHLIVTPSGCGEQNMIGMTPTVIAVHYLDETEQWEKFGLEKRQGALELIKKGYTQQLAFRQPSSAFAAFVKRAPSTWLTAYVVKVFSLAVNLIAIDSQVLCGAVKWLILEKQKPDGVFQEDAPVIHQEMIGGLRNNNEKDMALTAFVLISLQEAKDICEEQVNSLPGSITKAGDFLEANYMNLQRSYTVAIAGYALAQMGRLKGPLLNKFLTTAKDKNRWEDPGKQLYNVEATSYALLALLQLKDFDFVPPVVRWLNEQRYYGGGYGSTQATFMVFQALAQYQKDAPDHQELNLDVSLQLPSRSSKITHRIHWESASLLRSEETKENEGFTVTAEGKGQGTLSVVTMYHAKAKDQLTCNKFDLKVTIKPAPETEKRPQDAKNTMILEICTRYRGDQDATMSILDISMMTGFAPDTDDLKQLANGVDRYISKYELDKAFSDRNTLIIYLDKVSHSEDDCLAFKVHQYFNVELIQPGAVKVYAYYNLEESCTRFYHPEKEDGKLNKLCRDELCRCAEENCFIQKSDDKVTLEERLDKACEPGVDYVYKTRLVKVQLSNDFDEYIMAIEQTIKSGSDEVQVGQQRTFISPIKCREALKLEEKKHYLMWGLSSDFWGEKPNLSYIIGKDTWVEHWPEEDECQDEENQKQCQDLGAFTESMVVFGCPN
Sequence of C3b (P01024 23-667 limits assumed, chain 2 of 2): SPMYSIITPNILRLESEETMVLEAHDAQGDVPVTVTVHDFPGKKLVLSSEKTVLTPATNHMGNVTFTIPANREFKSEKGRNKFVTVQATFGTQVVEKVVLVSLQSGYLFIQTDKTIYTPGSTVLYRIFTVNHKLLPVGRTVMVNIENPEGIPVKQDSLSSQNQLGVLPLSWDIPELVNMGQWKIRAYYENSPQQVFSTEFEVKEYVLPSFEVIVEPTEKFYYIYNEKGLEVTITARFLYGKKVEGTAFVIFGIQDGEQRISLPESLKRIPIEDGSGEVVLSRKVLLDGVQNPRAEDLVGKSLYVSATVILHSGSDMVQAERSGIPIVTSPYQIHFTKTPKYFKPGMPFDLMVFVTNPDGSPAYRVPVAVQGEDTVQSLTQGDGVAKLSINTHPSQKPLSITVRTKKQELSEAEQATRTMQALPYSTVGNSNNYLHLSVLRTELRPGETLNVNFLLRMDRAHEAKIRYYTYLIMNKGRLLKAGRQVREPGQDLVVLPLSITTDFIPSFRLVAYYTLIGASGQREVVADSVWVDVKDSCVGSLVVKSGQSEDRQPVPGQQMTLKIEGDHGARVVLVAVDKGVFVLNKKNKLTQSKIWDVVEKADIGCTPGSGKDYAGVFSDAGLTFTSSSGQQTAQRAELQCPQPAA

soluble human CR1 (from UniProt P17927 42-1971) (receptor)
speed as cofactor in the degradation of C3b, against SPICEhis: > 2 fold
